Experimental data reported in article PMC10892419, “UHPLC-MS/MS Assay for Quantification of Legubicin, a Novel Doxorubicin-Based Legumain-Activated Prodrug, and Its Application to Pharmacokinetic and Tissue Distribution Studies” (Molecules, 2024).
Residues, ends and D or L forms follow the SMILES beside them. *: point of attachment. Doxorubicin(3'-N) = COc1cccc2c1C(=O)c1c(O)c3c(c(O)c1C2=O)C[C@@](O)(C(=O)CO)C[C@@H]3O[C@H]1C[C@H](N*)[C@H](O)[C@H](C)O1; Hexanoyl(6-maleimido) = O=C1C=CC(=O)N1CCCCCC(=O)*

Key:
[1] = cited from earlier work
[2] = Tissue-distribution study after i.v. legubicin or doxorubicin; settings: HT1080 tumor-bearing mice
Description: The mixture was vortexed for 3 min, and then centrifuged at 22,000× g at 4 °C for 10 min. A final analysis was conducted by injecting 5 µL supernatant into a UHPLC-MS/MS system. Mouse plasma samples were treated in the same way as the rat plasma samples, except for protein precipitation, with 200 µL of 5 pmol/mL IS working solution and injection of 2 µL of supernatant for analysis.
Each legubicin administration group corresponded to a sampling time-point (4, 16, 32, 48, 96, 168, and 240 h after administration). […] Blood samples and tumor, heart, and kidney tissues were collected at the sampling time points (4, 16, 32, 48, 96, 168, and 240 h after dosing). In addition, liver, spleen, lung, stomach, small intestine, gonads, brain, skeletal muscle, and skin were also collected at 4, 32, 96, and 240 h post-dose time points in the legubicin administration group. All whole-blood samples were processed according to the same processing steps, described above, for rat whole-blood samples.
The analysis software (Version 1.5.2, AB Sciex, Vaughan, ON, Canada) was applied to data acquisition and quantification. Pharmacokinetic parameters were calculated with WinNonlin Phoenix (v6.4, Pharsight, Mountain View, CA, USA) with the noncompartmental method, and were presented as mean ± SD (%CV). The “Best fit” strategy in the WinNonlin Phoenix was used for the calculation of elimination half-life and the selection of the elimination phase. Graphs were plotted by GraphPad Software (GraphPad Prism 8.0.2; GraphPad Software, Inc., La Jolla, CA, USA).

[3] = acute toxicological assessment in dogs; ref unpublished preclinical studies at the authors' institution; cited from earlier work
[4] = legubicin vs equimolar doxorubicin (9.05 µmol/kg i.v.)

COc1cccc2c1C(=O)c1c(O)c3c(c(O)c1C2=O)C[C@@](O)(/C(CO)=N/NC(=O)CCCCCN1C(=O)C=CC1=O)C[C@@H]3O[C@H]1C[C@H](N)[C@H](O)[C@H](C)O1 [DOXO-EMCH, doxorubicin (6-maleimidocaproyl) hydrazone]
AUC ([1]; doses equivalent to 2.5 mg/kg of doxorubicin): 536 µM·h
clearance (CL) ([1]; published value): approximately 7.9 mL/h/kg

COc1cccc2c1C(=O)c1c(O)c3c(c(O)c1C2=O)C[C@@](O)(C(=O)CO)C[C@@H]3O[C@H]1C[C@H](NC(=O)[C@H](CC(C)C)NC(=O)[C@H](CC(N)=O)NC(=O)[C@H](C)NC(=O)[C@H](C)NC(=O)CCCCCN2C(=O)C=CC2=O)[C@H](O)[C@H](C)O1 [Legubicin] ({Hexanoyl(6-maleimido)}-AANL-{Doxorubicin(3'-N)})
T/P Ratio of doxorubicin, kidney ([2]; i.v. 9.05 µmol/kg of the labelled drug, n = 6, tissue-to-plasma ratio): 28.9
fold decrease in doxorubicin exposure (AUClast) in the heart [2, 4]: 3.3 fold
fold decrease in doxorubicin exposure (AUClast) in the kidney [2, 4]: 3.5 fold
fold increase in tumor doxorubicin exposure (AUClast) [2, 4]: 1.8 fold
MTD relative to doxorubicin [3]: tenfold increase compared to doxorubicin
maximum tolerated dose (MTD) [3]: 15 mg/kg
